Assay results as given in the supplement of paper PMC12764529.
± gives the half width of the 95% confidence interval.

Experiments:
[1] = folding stability dG unfold from trypsin proteolysis; higher = more stable
In short: (§1)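 K50 was inferred by Bayesian fitting of sequencing counts obtained after protease digestion of designed mini-proteins. Unfolding free energy was derived by comparison with a sequence-predicted unfolded-state K50 and a shared folded-state K50, for each protease or both combined. The mini-proteins were under 80 residues, had no cysteine, were carried in a PA-tagged cDNA display construct, and were kept only if AlphaFold2 dimer inter-PAE exceeded 15.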

[2] = folding stability dG unfold (combined trypsin and chymotrypsin); higher = more stable
In short: as §1

[3] = folding stability dG unfold from chymotrypsin proteolysis; higher = more stable
In short: as §1

Sequence	folding stability dG unfold [1] [kcal/mol]	folding stability dG unfold [2] [kcal/mol]	folding stability dG unfold [3] [kcal/mol]
SAGGSAGGSSGPTLTIRYSILVSDSDGNWYALVFEARIYPNGDVEIRYRLYSYKDIPPGASPTSAGGSAGGS [r12_38_TrMRF]	4.12 ± 0.16	4.7 ± 0.067	4.85 ± 0.093
SAGGSAGGSSIEEEYAANPENVTVTLPSPGGTPASTITVGNAPVTVTPLPDGDSAVTLDPANKSAGGSAGGS [r12_805_JUSTAS]	0.727 ± 0.045	1.4 ± 0.043	1.69 ± 0.035
SAGGSAGGSSKAEELAKKLGVKVKIIDKFTLPGNKKVILAKVKFPGKGYALVLYDGKTPVLLPSAGGSAGGS [r12_279_TrMRF]	1.97 ± 0.07	1.96 ± 0.087	1.86 ± 0.099
SAGGSAGGSSLEEIKAAAEEAVAAGHPVLTVTSGSGKVVTVEVGESPIESAGPLDGVTVTLTGSAGGSAGGS [r20_44_JUSTAS]	1.02 ± 0.056	0.723 ± 0.073	0.443 ± 0.038
SAGGSAGGSSLTVTYDPSTGTLTITVPEDQTSVKIKYGDKTYTVPLPPGQTFTVPANTFTLESSAGGSAGGS [r20_26_TrMRF]	0.745 ± 0.071	1.29 ± 0.11	1.54 ± 0.08
SAGGSAGGSSMTLTIEPPEEGPPLLVEVDETEEIVTGDGTPVKVTTLKITIGEEEMTLTVTTLSAGGSAGGS [r20_39_JUSTAS]	1.71 ± 0.098	2.1 ± 0.15	2.46 ± 0.057
SAGGSAGGSSMTLTSEKTEKFTEGSKEFLKKTETWKLPGNSTLTKETIIDPSSDKYKEKISLLSAGGSAGGS [r12_1035_JUSTAS]	-0.727 ± 0.24	-0.159 ± 0.18	-0.0253 ± 0.24
SAGGSAGGSSMTLTTLEVNPSVTIEPQPGSIVVKTPVTTLVKAGDTLVTLESESITVLPPDLLSAGGSAGGS [r12_1023_JUSTAS]	0.486 ± 0.048	1.03 ± 0.062	1.2 ± 0.036
SAGGSAGGSSMYTYPELGVKVTTTPLPTDSTLVTATFPDGSVYKFTVDPSGNLVTSTPIVVNSSAGGSAGGS [r12_56_JUSTAS]	0.326 ± 0.018	0.784 ± 0.06	1.01 ± 0.064
SAGGSAGGSSNGITLKKPGGIEIKLPKPPSVKPVTVTTTFVFTTPDGKLVFVPKTTTLPPSLLSAGGSAGGS [r12_1027_JUSTAS]	1.59 ± 0.15	1.83 ± 0.29	2.25 ± 0.2
SAGGSAGGSSPDNKPVPPRFMIHVEIEPIKIPPEMREAAKDDPDNIDEIYVITIDVYFVGDDFSAGGSAGGS [r12_196_TrROS]	2.22 ± 0.063	2.58 ± 0.074	2.81 ± 0.07
SAGGSAGGSSPLIEKLRKDPNVTKIEIDTVKNTTYIYTPNKIYIINSKGEIEKVEEVSPEILKSAGGSAGGS [r12_895_JUSTAS]	0.743 ± 0.067	1.81 ± 0.17	2.36 ± 0.072
SAGGSAGGSSPLLEAALEIAKTLPPDSEVELPILNPETGTFVRVRVVYDEETGEFKVESVEFSSAGGSAGGS [r12_186_TrMRF]	1.5 ± 0.018	1.54 ± 0.1	1.44 ± 0.12
SAGGSAGGSSPVRTLTIPTENLTPEEILELVKNNPVDSVVLNADSEEEEKLKEELKKAGIKVLSAGGSAGGS [r12_610_JUSTAS]	-0.501 ± 0.071	-0.0698 ± 0.098	0.138 ± 0.15
SAGGSAGGSSSMTLTTDDGSTLDSVTRDPNSDTATVTYSGSGETVTATATTLPDGSVVVTVVTSAGGSAGGS [r12_839_JUSTAS]	1.26 ± 0.054	1.08 ± 0.11	0.784 ± 0.092
SAGGSAGGSSSVVSTLEETPDSVVEKVETPDPIIVERVPLPDGTVEVRVFKPDGTPISISTLGSAGGSAGGS [r12_1061_JUSTAS]	0.99 ± 0.036	0.507 ± 0.12	0.0395 ± 0.18
SAGGSAGGSSTLTLTVRVEVTVEVDGKTYTFTAELTLTVELPPLPEEDLKLYRTDDGELRLVRSAGGSAGGS [r12_1031_TrROS_Hall]	2.94 ± 0.21	2.88 ± 0.47	2.91 ± 0.24
SAGGSAGGSSVKAKLLSYSRDPTSDLVSVELLIEKSSETIPITLTVPPSEVQPGATITIEIRPSAGGSAGGS [r12_76_JUSTAS]	-0.616 ± 0.16	0.289 ± 0.072	0.609 ± 0.11

Sequence	folding stability dG unfold [1] [kcal/mol]	folding stability dG unfold [2] [kcal/mol]	folding stability dG unfold [3] [kcal/mol]
SAGGSAGGSSVTLTFTGGNSEVTVELDAGGEGGFLARVTVVTESDGKLETVEADFYLGSLPGLSAGGSAGGS [r12_769_TrMRF]	2.75 ± 0.13	3.29 ± 0.13	3.77 ± 0.065
SAGGSAGGSTILDALEKGFEITDIEPNNDGPYMLTVRNPEEGYRVTIMIHPNGDIMIQVQPVPSAGGSAGGS [r12_166_TrROS]	1.83 ± 0.075	2.06 ± 0.1	2.19 ± 0.042
SAGGSAGGSTITFFFDNPEQIEKLIEELMDKNNVEVEVEPHPDNGMPMVTFTNPNNGKEITIMSAGGSAGGS [r12_635_TrROS]	0.48 ± 0.057	0.54 ± 0.21	0.497 ± 0.23
SAGGSAGGSTIVIRLSKEELENMTAEELAEALAEEGAEVTVTVEYDEETDELVVTIEIHPEDLSAGGSAGGS [r12_716_TrROS_Hall]	2.12 ± 0.12	2.11 ± 0.13	2.01 ± 0.063
SAGGSAGGSTLEEVRKIAEEAVKKGYPYVVISAPGGLKKVFKVEEDDIVEIPDSEGYTVELLSSAGGSAGGS [r20_44_TrMRF]	0.202 ± 0.07	0.52 ± 0.12	0.85 ± 0.14
SAGGSAGGSTLRLRFRTPDGRLFEIEAEVRPDPDGRVYRLLRIREYDPETDEWLERPFRLPILSAGGSAGGS [r12_57_TrMRF]	3.77 ± 0.12	3.82 ± 0.056	3.83 ± 0.019
SAGGSAGGSTPTEFAKNLNVTEVKYDPVKKTVRVIHEFEDYLVLVEYDPSTGEVRVEVFSKDESAGGSAGGS [r12_214_TrMRF]	1.4 ± 0.12	1.84 ± 0.24	2.05 ± 0.12
SAGGSAGGSTTLTVDLPFGPATVHITGLPDSFVAFIEFDNPPFRATATIKEISKNGIVIEDIDFSAGGSAGG [r6_982_TrMRF]	2.2 ± 0.086	2.1 ± 0.22	1.9 ± 0.13
SAGGSAGGSVITLPNGVKLVTVKVSRPELDETETVTVPLEGMTLEEIKERLKKEGYKEVVFLESAGGSAGGS [r12_792_JUSTAS]	1.19 ± 0.032	1.26 ± 0.077	1.28 ± 0.036
SAGGSAGGSVKPGEKVLVRVRNPATGRWEEVVATVNEDGSITIYNKETGKTETIPLKDIELVPSAGGSAGGS [r12_726_TrROS_Hall]	4.6 ± 0.17	4.37 ± 0.088	4.25 ± 0.055
SAGGSAGGSWMLMVKIEFPENGQERHFMLPPGMTIEDIADRLREDGAPIKDIEVQWMPLPPGDSAGGSAGGS [r12_955_TrROS]	1.47 ± 0.033	1.62 ± 0.072	1.62 ± 0.086
SAGGSAGGSWYLRIEYMNGKEREFPFPPDMPGQPAEEIADKLGSPNMKVEFYDPEGEPREFDISAGGSAGGS [r12_411_TrROS]	0.589 ± 0.071	0.726 ± 0.18	0.754 ± 0.13
SAGGSAGGTAEELARKLEEALREAGYEVEKIEVVRVERKGDKVTIEVRVTLPDGRKLELRIELDSAGGSAGG [r6_839_TrROS_Hall]	4.09 ± 0.3	3.67 ± 0.21	3.22 ± 0.13
SAGGSAGGTIMIQFPDMDSPEEAIDQAEFFINEFMKQGNPGKPIKVTIQDPKNGQQQTFEIPLESAGGSAGG [r6_238_TrROS]	-0.935 ± 0.49	-0.114 ± 0.16	0.244 ± 0.16
SAGGSAGGTITLPGVTVEITEENGTLTIRVTSPDGRTLTRTITLPAGETVTVTDANGKTVTVRLSAGGSAGG [r6_806_TrROS_Hall]	2.8 ± 0.073	3.18 ± 0.11	3.34 ± 0.059
SAGGSAGGTITVTPLPDGRELITYPEKNALVEIVKDPATGKETVIVYEDGEPKVISLEELKKKLSAGGSAGG [r6_534_JUSTAS]	0.359 ± 0.059	0.417 ± 0.079	0.383 ± 0.021
SAGGSAGGTIWFDNPEDVERVVKDLRQEFPPDNPIDIMIWGPGSMYVIEITPDKIKDVEVYPMDSAGGSAGG [r6_289_TrROS]	0.318 ± 0.082	0.598 ± 0.27	0.683 ± 0.14
SAGGSAGGTLSIEELKELFPEAEKIEAEEVELTFTLPNGKKVKAKYRLVTVYRDNKPILLLVPGSAGGSAGG [r6_138_TrMRF]	2.82 ± 0.17	2.97 ± 0.12	2.97 ± 0.056
